Reference: the supplement of paper PMC9170038

Tested on: MS2 coat protein
Test: apparent KD of MS2 coat protein; designed switch direction (-1 OFF switch, 1 ON switch): -1; higher = weaker reporter binding
Procedure, shortened: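 Designed RNA switches sharing common flanks were transcribed on Illumina chips by stalled E. coli RNA polymerase. They were titrated with SNAP-549-labelled MS2 coat protein, from 0.7 or 1.5 nM doubling to 3 µM, in Tris-HCl pH 7.5 buffer with KCl, MgCl2, BSA, DTT, tRNA and Tween-20. Titrations ran without input, with 200 uM small-molecule ligand, or with an oligonucleotide input. The apparent KD of each design is the median over its clusters, after curve-fitting of normalised cluster fluorescence.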

[1] = Eterna round: R95, input ligand: microRNA oligo, concentration not stated
[2] = input ligand: microRNA oligo, concentration not stated
[3] = Eterna round: R95, input ligand: FMN 200 uM
[4] = Eterna round: R95, input ligand: none

| Sequence | apparent KD of MS2 coat protein [1] [nM] | apparent KD of MS2 coat protein (input ligand: FMN 200 uM) [nM] | apparent KD of MS2 coat protein [2] [nM] | apparent KD of MS2 coat protein (input ligand: none) [nM] | apparent KD of MS2 coat protein [3] [nM] | apparent KD of MS2 coat protein [4] [nM] |
| --- | --- | --- | --- | --- | --- | --- |
| CGCGUAUGAGGAUAUGCAUAAAAGGGUGCACUGAGUCUGUGACAUGAGGAUCACCCAUGUAGAAGGCGUGCGCA [Diquzain] (puzzle: Exclusion 2) | 25.4 |  |  |  |  |  |
| CGCUAGUCAGGAUAUACGAACAUGUCAAAAGACGUGAAGGGACAUGAGGAUCACCCAUGUAGAAGGGACUAGCG [Mat - Exclusion 2 - JL mod - D4] (Eterna round: R96, puzzle: Exclusion 2) |  | 256 | 21.3 | 32.2 |  |  |
| CGCUAGUCAGGAUAUACGAACAUGUCAAAAGACGUGAAGGGACAUGAGGAUCACCCAUGUAGAAGGGACUAGCG [salish99_ex2_r3_012] (puzzle: Exclusion 2) | 20 |  |  |  | 152 | 28.5 |
| CGGAGCAGAGGGAGAUCCAACAUGAGGAUCACCCAUGUCUCACAAGCUUUUUGCUCGUCUUAUUGUACCUUGGUACU [JL ViennaUCT Edcesobi mod 8] (puzzle: Sensor v3, turn-off variant 1) | 9.75 |  |  |  | 155 | 54.6 |
| CGGCAAUCCUAGGAUAUGCUAGACGAUAGUCUAGCAGAAGGAGGAACAUGAGGAUCACCCAUGUGUCCUAGCCG [Mat - Exclusion 6 - Eli Mod - D14] (Eterna round: R97, puzzle: Exclusion 6) |  | 17.8 |  | 14.4 |  |  |
| CGGCAUGUACAAGGAUAUCAGCACGUUUAGUGCUGAGAAGGUGUAACAUGAGGAUCACCCAUGUAGAUCAUUAACCGAUUAAUU [ENG1/9-A1] (Eterna round: R96, puzzle: Exclusion NG 1) |  | 128 | 48.1 | 59 |  |  |
| CGGCCUCGAGGAUAUGCUAUAAAAUGACCUUGGGUCAAAUGACUUGAGGAUCACCCAAGUAGAAGGCGAAAGCC [Bibice] (Eterna round: R97, puzzle: Exclusion 2) |  | 102 |  | 93 |  |  |
| CGGGAGGGACAAGCUGUUUGCACGUCUGGUAGUGAUGCAACAUGAGGAUCACCCAUGUAUAGGGUGUGAGAGGAUGG [JR_SV3TOV2_Sub050] (Eterna round: R96, puzzle: Sensor v3, turn-off variant 2) |  | 1330 | 149 | 338 |  |  |
| CGGGAGGGACAAGCUGUUUGCACGUCUGGUAGUGAUGCAACAUGAGGAUCACCCAUGUAUAGGGUGUGAGAGGAUGG [JR_SV3TOV2_Sub050] (puzzle: Sensor v3, turn-off variant 2) | 89.6 |  |  |  | 47.1 | 107 |
| CGGGCCGGCCUUCCGGCCGGCCCGACAUGAGGAUCACCCAUGUAGGAUAUCCCGGCUGCCGGCCGGGAGAAGGGCGUGCGUCCC [-49.5, -48.5 kcal, 14% A] (Eterna round: R96, puzzle: Exclusion NG 3) |  | 39.8 | 27.6 | 33.5 |  |  |
| CGGUCCCAUGUGAGGAUAUCGGAGCGAAAAUACUGCGAGAAGGUACAUGAGGAUCACCCAUGUCUCCUAUUGCC [Entiedxebe] (puzzle: Brourd's mod of Exclusion 4) | 15.2 |  |  |  |  |  |
| CGGUGCAGGCUGCGGUCCUACAUGAGGAUCACCCAUGUGGUCCGGUGGCGUGGGUCGCCGGACUUGGCUCGUCUUGU [salish99_S_TOV1_R5_015] (Eterna round: R97, puzzle: Sensor, turn-off variant 1) |  | 56.8 |  | 75.6 |  |  |
| CGGUGCUCGUGGAAACAUGAGGAUCACCCAUGUAGAGUUAGCGAGGAUAUCGGUAACACAUAUCACGAGAAGGCGCGAACCUGA [Ex NG3 #30] (Eterna round: R96, puzzle: Exclusion NG 3) |  | 27.8 | 11.7 | 16.3 |  |  |
| CGGUGCUCGUGGAAACAUGAGGAUCACCCAUGUUGAGUUAGCGAGGAUAUCGGUAACACAUGUCACGAGAAGGCGCGAACCAGA [Ex NG3 #32] (Eterna round: R96, puzzle: Exclusion NG 3) |  | 18.7 | 9.96 | 14.9 |  |  |
| CGGUGCUGAGGAUAUACAUGAGGAUCACCCAUGUGUUCCAGCUAGGUGACUGGCAGAUGUAGAAGGCGGUACUG [JL-ex3-3.38 Brourd mod] (puzzle: Exclusion 3) | 98.6 |  |  |  | 72.2 | 102 |
| CGGUGCUGAGGAUAUACAUGAGGAUCACCCAUGUGUUCUUGCUAGAAAACUGGCAGAUGUAGAAGGCGGUACUG [Mat - Exclusion 3 - Mod of JL D98] (puzzle: Exclusion 3) | 35.4 |  |  |  | 285 | 36.6 |
| CGGUGUAACAGAGGAUAUCAGCGCAACUGACGAUGAGAAGGCUGACAUGAGGAUCACCCAUGUGAUUUCUCAAUAUUAUACAUC [Prohibition 88 - Jieux - Exclusion NG 1] (Eterna round: R96, puzzle: Exclusion NG 1) |  | 371 | 72.3 | 100 |  |  |

| Sequence | apparent KD of MS2 coat protein [1] [nM] | apparent KD of MS2 coat protein (input ligand: FMN 200 uM) [nM] | apparent KD of MS2 coat protein [2] [nM] | apparent KD of MS2 coat protein (input ligand: none) [nM] | apparent KD of MS2 coat protein [3] [nM] | apparent KD of MS2 coat protein [4] [nM] |
| --- | --- | --- | --- | --- | --- | --- |
| CGUAGAUUAGGAUAUUGCUCGCUGGACAUGAGGAUCACCCAUGUGCGUGUCGUGCGAAGUCAAGAAGGAGUGUGUG [Eternabot (L2) Solution 40] (Eterna round: R97, puzzle: Exclusion 5) |  | 35.6 |  | 18 |  |  |
| CGUAGCAAAGUGAGGAUAUCUAGAGCUUCGGCUCUAGAGAAGGCACAUGAGGAUCACCCAUGUGAUUAGCUACG [BmEx4/9-A1] (Eterna round: R97, puzzle: Brourd's mod of Exclusion 4) |  | 152 |  | 29.8 |  |  |
| CGUAGUCUUCGGACUACGAACAUGAGGAUCACCCAUGUAAUGAGCAGAUCUUCAUGCAAGCUUUUUGCUCGUCUUAU [Sensor v3 - turn-off variant 1 - 43] (puzzle: Sensor v3, turn-off variant 1) | 14.7 |  |  |  | 148 | 227 |
| CGUAUCUUUCACGUGAGUAGUGGGUGCAACAGGUGGGUUACAUGAGGAUCACCCAUGUCCUCACUUGCUCGUCUUAU [Grok-var2-05] (puzzle: Sensor v3, turn-off variant 2) | 124 |  |  |  | 37.8 | 37.5 |
| CGUCCACAUGAGGAUCACCCAUGUGAGGAUAUCUAGCACGCAGUAGUACUGUGACAUCGGAGAAGGCGUAGGGU [Eternabot (L2) Solution 96] (Eterna round: R97, puzzle: Exclusion 1) |  | 32.2 |  | 21.2 |  |  |
| CGUCCGGCUUCCCUUCAAAACAUGAGGAUCACCCAUGUUUUUGUUUUUGCGAGCUUUUUGCUUUUUGCUCGUCUUGU [Even Better Attempt] (puzzle: Sensor v3, turn-off variant 1) | 12.5 |  |  |  | 20.1 | 19.9 |
| CGUCCUCUAGUCAGGAUAUUGUCUCGGAUACGAAACAAGAAGGGACAUGAGGAUCACCCAUGUAAUGAGGACGA [Malc #30 mod 15] (puzzle: Brourd's mod of Exclusion 4) | 33.1 |  |  |  | 20.1 | 33.8 |
| CGUCCUGUAGUCAGGAUAUUGUCUCGGAUACGAAACAAGAAGGGACAUGAGGAUCACCCAUGUAAUCAGGACGA [Malc #30 mod 13] (puzzle: Brourd's mod of Exclusion 4) | 36.5 |  |  |  | 19.5 | 36.5 |
| CGUCGAAAUGUAGGAUAUCUGCACGAUUAGUGCAGAGAAGGACAUGAGGAUCACCCAUGUAGAUCACGACGAAUUAAUUUAAUU [ENG1/5-C1] (Eterna round: R96, puzzle: Exclusion NG 1) |  |  | 48.4 |  |  |  |
| CGUCUACCAAAACCGAACAACAUGAGGAUCACCCAUGUCACUCCGCCUUAAACCUACGGAGUAAAGUGGGCGCAAAA [Vesocegeer] (Eterna round: R96, puzzle: Sensor v2, turn-off variant) |  | 32.2 | 28.5 | 33.2 |  |  |
| CGUCUGUAAGGAUAUGGUUGCAUCAACAUGAGGAUCACCCAUGUAACGUGGGACUAGUGAUUAGAAGGUACGAACG [EX5 #60] (Eterna round: R97, puzzle: Exclusion 5) |  | 93.8 |  | 118 |  |  |
| CGUCUGUAAGGAUAUGGUUGUAUCGACAUGAGGAUCACCCAUGUGACGUGGGACUAGUGAUUAGAAGGUACGAACG [EX5 #63] (Eterna round: R97, puzzle: Exclusion 5) |  | 876 |  | 672 |  |  |
| CGUCUGUCAGGAUAUACUUACGUAGACAUGAGGAUCACCCAUGUGACGUGGGACUGGUGAGUAGAAGGGACGAACA [EX5 #75] (Eterna round: R97, puzzle: Exclusion 5) |  | 28 |  | 30.6 |  |  |
| CGUGACUGAGGAUAUCUAUGAUGUCACAUGAGGAUCACCCAUGUCCAGCGAAAGCUGGAGGGAGAAGGCAGUCACG [Fiskers Ex 5 - 31] (puzzle: Exclusion 5) | 122 |  |  |  | 34.5 | 115 |
| CGUGCGUAUGUGAGGAUAUGCUGGUCCUUGGAUCGGCAGAAGGCACAUGAGGAUCACCCAUGUGGUGUCGUACA [salish99_Bmod_ex4_088] (puzzle: Brourd's mod of Exclusion 4) | 215 |  |  |  |  |  |
| CGUGCGUAUGUGAGGAUAUGCUGGUCCUUGGAUCGGCAGAAGGCACAUGAGGAUCACCCAUGUGGUGUCGUUCA [salish99_Bmod_ex4_091] (puzzle: Brourd's mod of Exclusion 4) | 108 |  |  |  | 31.3 | 173 |
